Assay results reported in patent US20150368311A1 (Sanofi, published 2015).
Non-standard residues stand in square brackets, D forms with d. No end group written: not given here. Ala(4-thiazolyl) = N[C@@H](Cc1cscn1)C(=O)O; Phg = N[C@H](C(=O)O)c1ccccc1; Nle = CCCC[C@H](N)C(=O)O

Tests used:
Experiment in all cases: cell-based or functional assay
[1] = target: T1, human GLP-1 receptor (human, UniProt P43220 24-463)
[2] = target: T2, human glucagon receptor (human, UniProt P47871 26-477)
[3] = target: T1, human GLP-1 receptor; remark: listed apart in the source
[4] = target: T2, human glucagon receptor; remark: listed apart in the source

T2 sequence (P47871 26-477): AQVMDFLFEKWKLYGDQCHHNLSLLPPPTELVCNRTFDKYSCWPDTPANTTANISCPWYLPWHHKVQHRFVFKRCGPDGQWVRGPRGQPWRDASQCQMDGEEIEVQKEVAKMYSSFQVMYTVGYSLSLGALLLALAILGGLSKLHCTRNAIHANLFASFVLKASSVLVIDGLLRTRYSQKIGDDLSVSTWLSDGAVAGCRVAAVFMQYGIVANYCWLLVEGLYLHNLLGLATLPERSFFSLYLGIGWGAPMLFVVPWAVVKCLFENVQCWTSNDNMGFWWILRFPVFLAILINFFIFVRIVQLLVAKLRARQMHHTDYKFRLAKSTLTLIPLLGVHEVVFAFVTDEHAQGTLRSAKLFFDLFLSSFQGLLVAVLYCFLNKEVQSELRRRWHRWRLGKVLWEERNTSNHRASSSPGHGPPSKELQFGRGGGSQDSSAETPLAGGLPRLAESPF

Binder	EC50 hGLP-1R, cAMP formation [1]	EC50 hGlucagon-R, cAMP formation [2]	EC50 hGLP-1 R [pM], cAMP formation [3]	EC50 hGLUC R [pM], cAMP formation [4]
[Ala(4-thiazolyl)]SQGTFTSDYSKQLESRRAQEFIEWLLATGPESGAPPPS-OH (N-terminus assumed; SMILES CC[C@H](C)[C@H](NC(=O)[C@H](Cc1ccccc1)NC(=O)[C@H](CCC(=O)O)NC(=O)[C@H](CCC(N)=O)NC(=O)[C@H](C)NC(=O)[C@H](CCCNC(=N)N)NC(=O)[C@H](CCCNC(=N)N)NC(=O)[C@H](CO)NC(=O)[C@H](CCC(=O)O)NC(=O)[C@H](CC(C)C)NC(=O)[C@H](CCC(N)=O)NC(=O)[C@H](CCCCN)NC(=O)[C@H](CO)NC(=O)[C@H](Cc1ccc(O)cc1)NC(=O)[C@H](CC(=O)O)NC(=O)[C@H](CO)NC(=O)[C@@H](NC(=O)[C@H](Cc1ccccc1)NC(=O)[C@@H](NC(=O)CNC(=O)[C@H](CCC(N)=O)NC(=O)[C@H](CO)NC(=O)[C@@H](N)Cc1cscn1)[C@@H](C)O)[C@@H](C)O)C(=O)N[C@@H](CCC(=O)O)C(=O)N[C@@H](Cc1c[nH]c2ccccc12)C(=O)N[C@@H](CC(C)C)C(=O)N[C@@H](CC(C)C)C(=O)N[C@@H](C)C(=O)N[C@H](C(=O)NCC(=O)N1CCC[C@H]1C(=O)N[C@@H](CCC(=O)O)C(=O)N[C@@H](CO)C(=O)NCC(=O)N[C@@H](C)C(=O)N1CCC[C@H]1C(=O)N1CCC[C@H]1C(=O)N1CCC[C@H]1C(=O)N[C@@H](CO)C(=O)O)[C@@H](C)O) [SEQ ID NO: 6]	9.3 nM	0.0005 nM	9300 pM	0.5 pM
[Ala(4-thiazolyl)]SQGTFTSDYSKQLESRRAQEFIEWLLAGGPESGAPPPS-OH (N-terminus assumed; SMILES CC[C@H](C)[C@H](NC(=O)[C@H](Cc1ccccc1)NC(=O)[C@H](CCC(=O)O)NC(=O)[C@H](CCC(N)=O)NC(=O)[C@H](C)NC(=O)[C@H](CCCNC(=N)N)NC(=O)[C@H](CCCNC(=N)N)NC(=O)[C@H](CO)NC(=O)[C@H](CCC(=O)O)NC(=O)[C@H](CC(C)C)NC(=O)[C@H](CCC(N)=O)NC(=O)[C@H](CCCCN)NC(=O)[C@H](CO)NC(=O)[C@H](Cc1ccc(O)cc1)NC(=O)[C@H](CC(=O)O)NC(=O)[C@H](CO)NC(=O)[C@@H](NC(=O)[C@H](Cc1ccccc1)NC(=O)[C@@H](NC(=O)CNC(=O)[C@H](CCC(N)=O)NC(=O)[C@H](CO)NC(=O)[C@@H](N)Cc1cscn1)[C@@H](C)O)[C@@H](C)O)C(=O)N[C@@H](CCC(=O)O)C(=O)N[C@@H](Cc1c[nH]c2ccccc12)C(=O)N[C@@H](CC(C)C)C(=O)N[C@@H](CC(C)C)C(=O)N[C@@H](C)C(=O)NCC(=O)NCC(=O)N1CCC[C@H]1C(=O)N[C@@H](CCC(=O)O)C(=O)N[C@@H](CO)C(=O)NCC(=O)N[C@@H](C)C(=O)N1CCC[C@H]1C(=O)N1CCC[C@H]1C(=O)N1CCC[C@H]1C(=O)N[C@@H](CO)C(=O)O) [SEQ ID NO: 5]	2.19 nM	0.0006 nM	2190 pM	0.6 pM
[Ala(4-thiazolyl)]SQGTFTSDVSKQLESRRAQEFIEWLLATGPESGAPPPS-OH (N-terminus assumed; SMILES CC[C@H](C)[C@H](NC(=O)[C@H](Cc1ccccc1)NC(=O)[C@H](CCC(=O)O)NC(=O)[C@H](CCC(N)=O)NC(=O)[C@H](C)NC(=O)[C@H](CCCNC(=N)N)NC(=O)[C@H](CCCNC(=N)N)NC(=O)[C@H](CO)NC(=O)[C@H](CCC(=O)O)NC(=O)[C@H](CC(C)C)NC(=O)[C@H](CCC(N)=O)NC(=O)[C@H](CCCCN)NC(=O)[C@H](CO)NC(=O)[C@@H](NC(=O)[C@H](CC(=O)O)NC(=O)[C@H](CO)NC(=O)[C@@H](NC(=O)[C@H](Cc1ccccc1)NC(=O)[C@@H](NC(=O)CNC(=O)[C@H](CCC(N)=O)NC(=O)[C@H](CO)NC(=O)[C@@H](N)Cc1cscn1)[C@@H](C)O)[C@@H](C)O)C(C)C)C(=O)N[C@@H](CCC(=O)O)C(=O)N[C@@H](Cc1c[nH]c2ccccc12)C(=O)N[C@@H](CC(C)C)C(=O)N[C@@H](CC(C)C)C(=O)N[C@@H](C)C(=O)N[C@H](C(=O)NCC(=O)N1CCC[C@H]1C(=O)N[C@@H](CCC(=O)O)C(=O)N[C@@H](CO)C(=O)NCC(=O)N[C@@H](C)C(=O)N1CCC[C@H]1C(=O)N1CCC[C@H]1C(=O)N1CCC[C@H]1C(=O)N[C@@H](CO)C(=O)O)[C@@H](C)O) [SEQ ID NO: 7]	4.19 nM	0.0024 nM	4190 pM	2.4 pM
[Ala(4-thiazolyl)]SQGTFTSDISKQLESRRAQEFIEWLLATGPESGAPPPS-OH (N-terminus assumed; SMILES CC[C@H](C)[C@H](NC(=O)[C@H](Cc1ccccc1)NC(=O)[C@H](CCC(=O)O)NC(=O)[C@H](CCC(N)=O)NC(=O)[C@H](C)NC(=O)[C@H](CCCNC(=N)N)NC(=O)[C@H](CCCNC(=N)N)NC(=O)[C@H](CO)NC(=O)[C@H](CCC(=O)O)NC(=O)[C@H](CC(C)C)NC(=O)[C@H](CCC(N)=O)NC(=O)[C@H](CCCCN)NC(=O)[C@H](CO)NC(=O)[C@@H](NC(=O)[C@H](CC(=O)O)NC(=O)[C@H](CO)NC(=O)[C@@H](NC(=O)[C@H](Cc1ccccc1)NC(=O)[C@@H](NC(=O)CNC(=O)[C@H](CCC(N)=O)NC(=O)[C@H](CO)NC(=O)[C@@H](N)Cc1cscn1)[C@@H](C)O)[C@@H](C)O)[C@@H](C)CC)C(=O)N[C@@H](CCC(=O)O)C(=O)N[C@@H](Cc1c[nH]c2ccccc12)C(=O)N[C@@H](CC(C)C)C(=O)N[C@@H](CC(C)C)C(=O)N[C@@H](C)C(=O)N[C@H](C(=O)NCC(=O)N1CCC[C@H]1C(=O)N[C@@H](CCC(=O)O)C(=O)N[C@@H](CO)C(=O)NCC(=O)N[C@@H](C)C(=O)N1CCC[C@H]1C(=O)N1CCC[C@H]1C(=O)N1CCC[C@H]1C(=O)N[C@@H](CO)C(=O)O)[C@@H](C)O) [SEQ ID NO: 8]	5.8 nM	0.0022 nM	5800 pM	2.2 pM
[Ala(4-thiazolyl)]SQGTFTSD[Phg]SKQLESRRAQEFIEWLLATGPESGAPPPS-OH (N-terminus assumed; SMILES CC[C@H](C)[C@H](NC(=O)[C@H](Cc1ccccc1)NC(=O)[C@H](CCC(=O)O)NC(=O)[C@H](CCC(N)=O)NC(=O)[C@H](C)NC(=O)[C@H](CCCNC(=N)N)NC(=O)[C@H](CCCNC(=N)N)NC(=O)[C@H](CO)NC(=O)[C@H](CCC(=O)O)NC(=O)[C@H](CC(C)C)NC(=O)[C@H](CCC(N)=O)NC(=O)[C@H](CCCCN)NC(=O)[C@H](CO)NC(=O)[C@@H](NC(=O)[C@H](CC(=O)O)NC(=O)[C@H](CO)NC(=O)[C@@H](NC(=O)[C@H](Cc1ccccc1)NC(=O)[C@@H](NC(=O)CNC(=O)[C@H](CCC(N)=O)NC(=O)[C@H](CO)NC(=O)[C@@H](N)Cc1cscn1)[C@@H](C)O)[C@@H](C)O)c1ccccc1)C(=O)N[C@@H](CCC(=O)O)C(=O)N[C@@H](Cc1c[nH]c2ccccc12)C(=O)N[C@@H](CC(C)C)C(=O)N[C@@H](CC(C)C)C(=O)N[C@@H](C)C(=O)N[C@H](C(=O)NCC(=O)N1CCC[C@H]1C(=O)N[C@@H](CCC(=O)O)C(=O)N[C@@H](CO)C(=O)NCC(=O)N[C@@H](C)C(=O)N1CCC[C@H]1C(=O)N1CCC[C@H]1C(=O)N1CCC[C@H]1C(=O)N[C@@H](CO)C(=O)O)[C@@H](C)O) [SEQ ID NO: 10]	45 nM	0.006 nM	45000 pM	6 pM
HSQGTFTSDLSKQ[Nle]ESRRAQEFIEWLLATGPESGAPPPS-OH (N-terminus assumed; SMILES CCCC[C@H](NC(=O)[C@H](CCC(N)=O)NC(=O)[C@H](CCCCN)NC(=O)[C@H](CO)NC(=O)[C@H](CC(C)C)NC(=O)[C@H](CC(=O)O)NC(=O)[C@H](CO)NC(=O)[C@@H](NC(=O)[C@H](Cc1ccccc1)NC(=O)[C@@H](NC(=O)CNC(=O)[C@H](CCC(N)=O)NC(=O)[C@H](CO)NC(=O)[C@@H](N)Cc1c[nH]cn1)[C@@H](C)O)[C@@H](C)O)C(=O)N[C@@H](CCC(=O)O)C(=O)N[C@@H](CO)C(=O)N[C@@H](CCCNC(=N)N)C(=O)N[C@@H](CCCNC(=N)N)C(=O)N[C@@H](C)C(=O)N[C@@H](CCC(N)=O)C(=O)N[C@@H](CCC(=O)O)C(=O)N[C@@H](Cc1ccccc1)C(=O)N[C@H](C(=O)N[C@@H](CCC(=O)O)C(=O)N[C@@H](Cc1c[nH]c2ccccc12)C(=O)N[C@@H](CC(C)C)C(=O)N[C@@H](CC(C)C)C(=O)N[C@@H](C)C(=O)N[C@H](C(=O)NCC(=O)N1CCC[C@H]1C(=O)N[C@@H](CCC(=O)O)C(=O)N[C@@H](CO)C(=O)NCC(=O)N[C@@H](C)C(=O)N1CCC[C@H]1C(=O)N1CCC[C@H]1C(=O)N1CCC[C@H]1C(=O)N[C@@H](CO)C(=O)O)[C@@H](C)O)[C@@H](C)CC) [SEQ ID NO: 36]	0.358 nM	0.0014 nM		
